Values quoted from earlier work as cited in paper PMC3008546.

Target: DNA ligase IV BRCT (Homo sapiens) (UniProt P49917)
Sequence (P49917 654-911): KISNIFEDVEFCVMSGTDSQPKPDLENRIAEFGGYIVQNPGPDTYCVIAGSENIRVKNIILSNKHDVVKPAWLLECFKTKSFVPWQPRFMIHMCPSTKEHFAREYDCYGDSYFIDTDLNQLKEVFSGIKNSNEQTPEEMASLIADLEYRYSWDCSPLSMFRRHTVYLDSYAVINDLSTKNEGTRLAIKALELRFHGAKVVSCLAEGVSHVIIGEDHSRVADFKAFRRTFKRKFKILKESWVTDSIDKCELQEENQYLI

Chain of XRCC4 (Q13426 266-336): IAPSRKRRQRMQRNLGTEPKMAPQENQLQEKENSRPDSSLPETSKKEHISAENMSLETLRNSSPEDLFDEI

Kd: 1 nM
Substance: XRCC4 (from UniProt Q13426)
